Source: the DeepSol protein solubility set

Experiment: soluble on expression in E. coli; label from the status in PepcDB or PDB records

Soluble on expression in E. coli, not soluble:
MAHHHHHHMKQSIVTPLRSPLHCATPLPLTFFPSYRRWLPVVRHASRRPHGVFEQRRRGRPHGSTKRVLRHCDAARRVAVVQQKLHVRHVPAIGTKKPTQSHIGSHKAAVAFHRHDSTFLNGVPPNHHTHRRSPRRQFVLRKQTKRFHQEGAVAPLGLVKNGPRPQRTAGITERVYSISLRVTFQKKVSLAAKPVHQLSIDALHALRGVLRRDTSVRKNNPLAHHSHRMLKNVQAVGTLWAKGRRVRLFSSKGTHNIRVYVVEDAQDIHQLMVAHKKNKFPARLHCLPLQGGKKVVNLVGVEPAISDVAKLDNYRRTSNPAILGIRNICQLQYLATAKNIAMNVSKRNQAGLSAADVYRLHVQKRHKICRSAKK, MDTEKLRRQLIDRITDNYSEYRASLLLKDRQELIDGAGRIADTATVFQHLADRSYKPEELEYLLKFQNPLEVVTEHWADYELMPDVLDALIADTVDRQDDLTLFPLATDAPAQKPESLRKFLNVDLETVLPQIMKQKTAFYQTDLNYALDAMREGATSGDPAKQNFVLIFRQSGVECLNERDMFIGGTRSFNTLQFYHTQTREPVLTYSVELTGDGKDGLRGNLYQQDNHRLAEYAGRTASPYTDVTVTFTGGKEVRLPEKEFYYEKAASLKYLHGSIKEVRNEAEDETVVQGAVKREHDRRREMPRGYFAVHLQALDEQRIQAEADRLSSALTDLKQPNSPDKEKFMVEISVYFLPLASQHDMNRLFEKVRDQVGQTVYITPPDDTHKRYFVMRREERAQEQPERKPSIKAQLSAKPVPGDKPATKTKDREVR, MARIKLIDETTDLSQVRRPIGWDLEVNGVPYDVYRIDGYNHTLGGKFSENCYWACPAGKKPTYKNLIEFNGDAPTWGIVFDRSNYTKTKWDETSVECNGICWITRNGKKFYSIPARYMDYGLAKAQYILVKLLEECPLWLSERNWKEKAIGRKIWYENQPAKIIRINEENELWIEPDGIPVFKAPAHWDHDDYSDYENGLRVDLLSPNIYWFRD, MAHHHHHHMWRPRRVQGLGSGEDICHLVSAVRRQGIRSLPSGLVVAAEIAYRCCSYSIESFQTDSTEAKKPSRVVGTAPTERQKRPSALAPSSSIPATEKAGIIVEWVPDALGYHLPLGLRERWEPSSKASPTEAGGLKASNDAETHGTEQQELEEVSSVGNPCASSRVGDGGGGSGHRSGHSDGPPFYGPLPNFATSPVFEWERCLWQWRPVKITPAAGTPHHTSLTVTAPISSSGEKRPLRDEMHCSDGGENDLAEGGLGESSQVYHLVPFLLCPTLEVCATQPLMHGSLRKELAAAQNACHHLRRSWPEDAKQDLLGTRRCPTYSEHETRLWSITIPTPVGELALSSPQDTDGDDANKQNTMLDLPTFAMIEGEPPMRVGGRIRACCGHGITSPAPPEAETWEAATAAARNERSTSAGNAAVPYVHVFCSEMSAACSDSLLSQTGIKASELPTPSSCDVSSPTLPLTRRNVVGGGLAELILAVDRYAALIARGDLALSAACWATLCDTKSWWVVQRLRVCPLEMERELVAATEAHKLWQQYAVSRNSTLVGKSSHGICFYDYPFLAKWPLGRQAATKATAPIRAHTRWRV, MGSDKIHHHHHHMKILLYLEAEQFLSHSGIGRAMKHQQRALDLMGIDWTKNPEDDYDILHLNTYGFSSWKMLKKAKKAGKKVIFHGHSTKEDFQNSFIGSNIAAPFFKQYLMHFYRAADLVITPTDYSASLLRSYGIKCPILPISNGIDLTKYSRSEAKEQAFREYFSLKSDQKVVVTAALYFKRKGIDDFIKVAERMPDVTFIWFGYQNLWTIPGWIRRIVKKNHPKNVLFPGYIKGDIFEGAMSSADAFFFPSREETEGIVVLEALASHQKTVVRDIPVYHGWLDSTCVSMATDVEGFVNQLQDVLDGKVDKTKEAYQVAESRTIEKVAQQLADAYQQTLEL, MGSDKIHHHHHHMNIQEKSKIEYRSRINRVMDYIDIHLDQPLELKSIAEIANFSPFHFHRIFTFLIGETPIDYIQRLRIEKAACRLRENMDISISEIADSCGFCTVSLFSRVFKKFFGLTPSQFRKTERPVYAQDGILFSKNGQMVSKNLTPKHVLSPQLCSVKFKISYFMETKIEVKEMPDMKAVYCRHMGAFKEIVKAYEKLIKWAEPRGLYIPNVTKSATVTHDDPSVTELSKVRQSACIIVEGDVKGEGEIGNLVIPGGQYAVGHFELGTEDFEKAWNTMCKWFTESGYQQGDGCTYELYHNSHRTHPENKHIVDICIPIKPL
